Target: T1, S. venezuelae WhiD (SvWhiD), N-terminally His6-tagged, full length (S. venezuelae, [4Fe-4S] cluster bound as isolated (cluster loading ~90%); cluster-free (apo) form after exposure to O2; N-terminal methionine cleaved)
T1 construct: WhiD of Streptomyces venezuelae, Wbl family [4Fe-4S] protein; codon-optimized gene in pET28a (NdeI/HindIII); His-tagged protein 15,923 Da by LC-MS (predicted 15,924 Da without the N-terminal methionine); The holo ([4Fe-4S]) and apo (cluster-free) forms have the same polypeptide and are kept as one molecule; The assay and the 'only:' limit tell which form was tested; The preparation holds ~10% …
Experiment: native MS; nondenaturing ESI-MS titration; SvWhiD 3 μM with σ^HrdB4 0.75-21 μM, I151A FNR (3 μM) as internal standard, 250 mM ammonium acetate, pH 7.2; fractional saturation against free σ^HrdB4 fitted with a simple binding isotherm
Conditions: both partners purified

B1: Domain 4 of the S. venezuelae principal sigma factor σ^HrdB (σ^HrdB4), N-terminally His6-tagged (domain or fragment)
chain: PADAVSFTLLQEQLHSVLDTLSEREAGVVSMRFGLTDGQPKTLDEIGKVYGVTRERIRQIESKTMSKLRHPSRSQVLRDYLD
- Kd: 0.74 µM
